These results are taken from article PMC4601788.

In data set [1] the target is rLiPABP (poly(A)-binding protein) (Leishmania infantum) (UniProt A4IBV3). In words: ELONA.
Data set [2] deals with Myc-LiPABP (Leishmania infantum) (UniProt A4IBV3). Briefly: competition.
Data set [3] has as its target endogenous LiPABP (eLiPABP) (Leishmania infantum) (UniProt A4IBV3). Briefly: competition.
The target of data set [4] is Flag-LiPABP (Leishmania infantum) (UniProt A4IBV3). In words: pull-down.

The term Kd denotes the free concentration of one partner at which half of the binding sites on the other are occupied at equilibrium, for simple one-to-one binding. A low value points to higher affinity.

In data set [1], “GTTGCTCGTATTTAGGGCGGCCCCCTCCTCCCTCCCCCACCCGACACTATTCCCCCCCACACCAGTCTTCATCCGC [ApPABP#11]” gave a Kd of 10.8 nM. Besides, the binding signal (% reduction of poly(A) binding) in data set [2] was determined as 80; in data set [3] it was 30. In addition, the binding signal (% of total Flag-LiPABP recovered) in data set [4] is less than 50.
In data set [1], “GCGGATGAAGACTGGTGTGGACAGTTCTACGAGGATTACGCTGTTACTAAGTGTGGGGGCCCTAAATACGAGCAAC [ApPABP#3]” came in with a Kd of 5.4 nM. In addition, the binding signal (% of total Flag-LiPABP recovered) in data set [4] was more than 75.
Taken in the same sequence, the figures for “GCGGATGAAGACTGGTGTCCAGAGTGAACACAAAGAAATTGAAATACGTAAGCTCCGGGCCCTAAATACGAGCAAC [ApPABP#7]” were 6 nM and more than 75.
